Tests used:
[1] = molecular target: CgnE (Chondromyces crocatus CM c5); experiment: MST; microscale thermophoresis of two components; which one was titrated is told only in Fig. 3c
[2] = molecular target: CgnB (Chondromyces crocatus CM c5); experiment: as above

Sequence of CgnE (Chondromyces crocatus CM c5) (main, as listed by the source): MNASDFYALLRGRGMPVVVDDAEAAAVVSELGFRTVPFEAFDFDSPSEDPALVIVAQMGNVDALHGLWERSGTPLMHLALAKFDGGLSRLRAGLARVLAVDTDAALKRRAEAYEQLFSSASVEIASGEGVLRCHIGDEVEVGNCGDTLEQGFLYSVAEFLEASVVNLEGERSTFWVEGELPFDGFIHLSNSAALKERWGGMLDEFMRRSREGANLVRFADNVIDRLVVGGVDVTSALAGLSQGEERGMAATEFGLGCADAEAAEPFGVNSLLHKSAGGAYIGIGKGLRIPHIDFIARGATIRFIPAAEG

Kd [1]: 1.8 µM | Kd [2]: 10.5 µM
Binder: MKKTIKQISAGDRSKKGNIYW (modifications not checked) [CgnA, crocagin precursor peptide]
